# Results from paper PMC12316933.
# Molecular target: KS17 N2 NA (recombinant N2 neuraminidase head of H3N2 A/Kansas/14/2017) (Influenza A virus H3N2 A/Kansas/14/2017)
# Assay: cryo-EM structure
substance,measurement,value
KS17 N2 NA (recombinant N2 neuraminidase head of H3N2 A/Kansas/14/2017) (enzyme),stoichiometry N,4
